Data taken from PMC5286830, “Prokaryotic ubiquitin-like protein remains intrinsically disordered when covalently attached to proteasomal target proteins” (BMC Structural Biology, 2017).

Biological target: MtbDop-F (Mycobacterium tuberculosis deamidase of Pup / depupylase, randomly fluorescein-labeled) (Mycobacterium tuberculosis) (UniProt P9WNU9)
Test: MST; Monolith NT.115, starting temperature 19 C; 30 nM MtbDop-F with serial 1:1 dilutions of MtbPup or MtbPup ~ FabD-3KR from 25 uM to 15 nM; 50 mM HEPES-NaOH pH 7.5, 150 mM NaCl, 1 mM MgCl2, 10% glycerol, 0.01% Tween-20; T-jump analysis, fit assuming 1:1 binding

## MtbPup (prokaryotic ubiquitin-like protein from Mycobacterium tuberculosis, free) (from UniProt P9WHN5 1-64) (natural protein)
  Kd: 14.6 nM
